Measured values from the supplement of paper PMC10065799, “High-throughput profiling of sequence recognition by tyrosine kinases and SH2 domains using bacterial peptide display” (eLife, 2023).

Assays:
[1] = biological target: FGFR3 (UniProt P22607); test: phosphorylation enrichment, bacterial display (enrichment ratio); higher = better substrate or ligand; peptides without Tyr show the background
[2] = biological target: Jak2 (UniProt O60674); test: as above
[3] = biological target: Fyn (UniProt P06241); test: as above
Chain of Fyn (P06241 whole entry, looked up): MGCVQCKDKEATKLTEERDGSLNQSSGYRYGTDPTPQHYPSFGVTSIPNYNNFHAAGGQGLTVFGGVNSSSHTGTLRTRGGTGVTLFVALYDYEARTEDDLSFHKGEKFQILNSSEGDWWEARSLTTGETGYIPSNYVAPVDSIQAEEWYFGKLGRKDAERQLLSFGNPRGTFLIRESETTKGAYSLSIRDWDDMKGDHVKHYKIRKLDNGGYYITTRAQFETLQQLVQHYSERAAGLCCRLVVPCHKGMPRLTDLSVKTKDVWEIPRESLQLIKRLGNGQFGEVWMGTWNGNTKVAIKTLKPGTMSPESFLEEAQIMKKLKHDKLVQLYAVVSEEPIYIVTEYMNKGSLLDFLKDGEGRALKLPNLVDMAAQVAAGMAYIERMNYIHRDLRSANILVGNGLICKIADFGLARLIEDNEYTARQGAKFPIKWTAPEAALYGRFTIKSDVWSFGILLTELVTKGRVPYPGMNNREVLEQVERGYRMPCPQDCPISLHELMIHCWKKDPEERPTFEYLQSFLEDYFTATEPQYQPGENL

[4] = biological target: MERTK (UniProt Q12866); test: as above
Chain of MERTK (Q12866 whole entry, looked up): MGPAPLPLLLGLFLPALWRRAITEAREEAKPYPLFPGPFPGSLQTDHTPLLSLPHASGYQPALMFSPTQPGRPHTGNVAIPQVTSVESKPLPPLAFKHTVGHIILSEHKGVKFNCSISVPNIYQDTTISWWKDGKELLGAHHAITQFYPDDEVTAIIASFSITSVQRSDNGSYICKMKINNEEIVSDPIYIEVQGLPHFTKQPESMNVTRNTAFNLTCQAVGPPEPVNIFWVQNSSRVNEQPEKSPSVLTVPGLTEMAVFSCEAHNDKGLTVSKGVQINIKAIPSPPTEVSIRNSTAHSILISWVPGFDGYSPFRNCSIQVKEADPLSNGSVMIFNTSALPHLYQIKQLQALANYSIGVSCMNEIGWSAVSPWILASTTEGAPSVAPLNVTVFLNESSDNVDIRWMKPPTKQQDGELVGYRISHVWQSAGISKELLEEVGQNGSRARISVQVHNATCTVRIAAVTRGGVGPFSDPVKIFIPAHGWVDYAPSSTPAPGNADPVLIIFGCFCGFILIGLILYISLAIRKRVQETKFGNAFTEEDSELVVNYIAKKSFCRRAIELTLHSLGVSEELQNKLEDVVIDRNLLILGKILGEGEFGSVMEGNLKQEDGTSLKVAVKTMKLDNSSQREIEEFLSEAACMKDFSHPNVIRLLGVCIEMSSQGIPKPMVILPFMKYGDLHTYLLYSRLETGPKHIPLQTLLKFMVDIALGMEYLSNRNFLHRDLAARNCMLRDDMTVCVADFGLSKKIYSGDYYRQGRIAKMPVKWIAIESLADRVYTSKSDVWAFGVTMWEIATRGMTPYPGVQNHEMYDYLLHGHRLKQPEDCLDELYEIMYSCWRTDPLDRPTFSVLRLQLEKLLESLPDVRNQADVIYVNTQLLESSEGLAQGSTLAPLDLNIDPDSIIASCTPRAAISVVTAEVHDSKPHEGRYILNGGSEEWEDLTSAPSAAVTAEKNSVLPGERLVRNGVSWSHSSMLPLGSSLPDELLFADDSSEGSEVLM

[5] = biological target: FGFR1 (UniProt P11362); test: as above
Chain of FGFR1 (P11362 whole entry, looked up): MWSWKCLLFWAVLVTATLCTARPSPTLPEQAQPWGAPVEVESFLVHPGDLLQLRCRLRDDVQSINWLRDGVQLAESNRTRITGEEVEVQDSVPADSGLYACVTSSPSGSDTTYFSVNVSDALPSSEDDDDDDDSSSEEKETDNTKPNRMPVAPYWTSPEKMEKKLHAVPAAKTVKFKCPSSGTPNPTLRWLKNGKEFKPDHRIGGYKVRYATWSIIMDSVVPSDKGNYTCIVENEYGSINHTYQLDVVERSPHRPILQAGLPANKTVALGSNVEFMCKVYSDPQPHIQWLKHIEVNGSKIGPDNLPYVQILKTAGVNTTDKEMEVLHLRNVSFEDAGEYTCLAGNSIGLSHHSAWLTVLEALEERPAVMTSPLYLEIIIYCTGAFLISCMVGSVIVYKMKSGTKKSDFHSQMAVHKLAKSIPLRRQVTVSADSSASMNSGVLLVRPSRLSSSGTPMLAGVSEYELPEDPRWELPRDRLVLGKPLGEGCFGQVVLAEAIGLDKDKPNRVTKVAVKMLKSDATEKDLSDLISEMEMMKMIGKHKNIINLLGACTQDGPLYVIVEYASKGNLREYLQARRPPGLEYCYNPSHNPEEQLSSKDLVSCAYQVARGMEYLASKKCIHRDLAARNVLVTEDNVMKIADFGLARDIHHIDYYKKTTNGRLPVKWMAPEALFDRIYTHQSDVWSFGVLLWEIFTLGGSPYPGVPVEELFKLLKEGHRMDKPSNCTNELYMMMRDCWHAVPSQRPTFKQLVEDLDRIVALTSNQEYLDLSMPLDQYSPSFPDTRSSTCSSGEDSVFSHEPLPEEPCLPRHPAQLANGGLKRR

[6] = biological target: Fes (UniProt P07332); test: as above
Chain of Fes (P07332 whole entry, looked up): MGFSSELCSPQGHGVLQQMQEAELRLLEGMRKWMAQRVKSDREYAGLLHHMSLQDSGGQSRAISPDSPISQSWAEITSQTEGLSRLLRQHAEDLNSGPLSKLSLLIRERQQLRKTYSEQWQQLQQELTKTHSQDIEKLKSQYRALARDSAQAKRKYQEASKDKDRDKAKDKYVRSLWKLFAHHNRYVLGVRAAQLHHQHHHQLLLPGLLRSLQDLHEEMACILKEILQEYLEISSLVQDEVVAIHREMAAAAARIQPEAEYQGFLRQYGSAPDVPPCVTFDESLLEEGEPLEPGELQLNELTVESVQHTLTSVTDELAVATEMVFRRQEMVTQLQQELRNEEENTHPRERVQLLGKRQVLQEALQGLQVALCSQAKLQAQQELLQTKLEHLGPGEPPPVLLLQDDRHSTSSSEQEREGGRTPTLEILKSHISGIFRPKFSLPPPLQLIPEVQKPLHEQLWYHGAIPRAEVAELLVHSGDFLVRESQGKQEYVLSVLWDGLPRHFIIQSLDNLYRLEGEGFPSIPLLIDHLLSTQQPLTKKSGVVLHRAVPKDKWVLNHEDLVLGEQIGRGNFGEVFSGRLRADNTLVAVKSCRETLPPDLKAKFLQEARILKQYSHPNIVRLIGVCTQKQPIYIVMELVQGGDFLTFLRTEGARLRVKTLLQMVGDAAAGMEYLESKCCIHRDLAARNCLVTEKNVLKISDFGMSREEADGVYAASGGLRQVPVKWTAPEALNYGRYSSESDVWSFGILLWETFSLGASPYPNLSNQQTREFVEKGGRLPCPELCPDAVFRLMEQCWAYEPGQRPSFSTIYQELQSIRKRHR

[7] = test system: c-Abl (mouse); test: as above
[8] = biological target: EPHB2 (UniProt P29323); test: as above
Chain of EPHB2 (P29323 whole entry, looked up): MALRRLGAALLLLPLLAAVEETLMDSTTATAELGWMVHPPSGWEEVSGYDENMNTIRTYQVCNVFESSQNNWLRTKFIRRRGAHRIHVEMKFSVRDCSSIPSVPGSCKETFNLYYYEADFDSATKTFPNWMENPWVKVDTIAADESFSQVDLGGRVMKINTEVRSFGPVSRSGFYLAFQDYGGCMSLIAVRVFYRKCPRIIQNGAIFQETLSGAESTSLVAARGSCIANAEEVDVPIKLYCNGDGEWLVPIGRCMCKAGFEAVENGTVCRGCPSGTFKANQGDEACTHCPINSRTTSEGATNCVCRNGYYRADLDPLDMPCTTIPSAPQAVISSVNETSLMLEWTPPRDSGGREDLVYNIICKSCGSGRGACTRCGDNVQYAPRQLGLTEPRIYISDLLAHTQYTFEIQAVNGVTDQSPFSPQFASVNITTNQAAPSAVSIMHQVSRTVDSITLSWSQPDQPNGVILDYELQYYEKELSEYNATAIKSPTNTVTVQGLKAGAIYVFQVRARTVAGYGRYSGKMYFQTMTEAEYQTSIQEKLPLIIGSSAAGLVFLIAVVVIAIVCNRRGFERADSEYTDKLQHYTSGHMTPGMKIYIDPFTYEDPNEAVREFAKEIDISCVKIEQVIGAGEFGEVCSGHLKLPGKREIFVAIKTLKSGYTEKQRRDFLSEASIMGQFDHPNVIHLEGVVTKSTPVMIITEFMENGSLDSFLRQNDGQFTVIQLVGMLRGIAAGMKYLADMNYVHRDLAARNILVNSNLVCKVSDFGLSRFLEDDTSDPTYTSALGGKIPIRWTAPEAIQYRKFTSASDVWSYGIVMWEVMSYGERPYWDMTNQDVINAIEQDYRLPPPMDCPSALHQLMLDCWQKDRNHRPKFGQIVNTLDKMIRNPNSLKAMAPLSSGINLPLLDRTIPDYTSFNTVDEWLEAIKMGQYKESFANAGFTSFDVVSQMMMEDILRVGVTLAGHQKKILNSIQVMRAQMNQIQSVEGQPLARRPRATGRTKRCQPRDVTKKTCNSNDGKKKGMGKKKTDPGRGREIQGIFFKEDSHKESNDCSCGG

[9] = biological target: EPHB1 (UniProt P54762); test: as above
[10] = test system: c-Src; test: as above
[11] = biological target: Hck (UniProt P08631); test: as above
[12] = test system: Fer (mouse); test: as above
[13] = test system: AncSZ; test: as above
[14] = biological target: c-Src SH2; test: SH2 binding enrichment of the phosphorylated peptide, bacterial display (enrichment ratio); higher = better substrate or ligand; peptides without Tyr show the background
[15] = biological target: Grb2 SH2 (UniProt P62993); test: as above
[16] = biological target: SHP2-C SH2; test: as above
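Wherever SH2 binding enrichment of the phosphorylated peptide, bacterial display is given: peptide library displayed on the E. coli surface as eCPX fusions, selected cells deep-sequenced, score is each peptide's frequency after selection divided by its frequency in the input.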
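Wherever phosphorylation enrichment, bacterial display is given: 11-residue human phosphosite peptides and single-mutation variants displayed on the E. coli surface, counted by deep sequencing, each peptide's frequency after selection divided by its frequency in the unselected input library; frequency after pTyr selection over input frequency; kinase dosed for 20-30% of maximal phosphorylation in three min.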

Chain of FGFR3 (P22607 whole entry, looked up): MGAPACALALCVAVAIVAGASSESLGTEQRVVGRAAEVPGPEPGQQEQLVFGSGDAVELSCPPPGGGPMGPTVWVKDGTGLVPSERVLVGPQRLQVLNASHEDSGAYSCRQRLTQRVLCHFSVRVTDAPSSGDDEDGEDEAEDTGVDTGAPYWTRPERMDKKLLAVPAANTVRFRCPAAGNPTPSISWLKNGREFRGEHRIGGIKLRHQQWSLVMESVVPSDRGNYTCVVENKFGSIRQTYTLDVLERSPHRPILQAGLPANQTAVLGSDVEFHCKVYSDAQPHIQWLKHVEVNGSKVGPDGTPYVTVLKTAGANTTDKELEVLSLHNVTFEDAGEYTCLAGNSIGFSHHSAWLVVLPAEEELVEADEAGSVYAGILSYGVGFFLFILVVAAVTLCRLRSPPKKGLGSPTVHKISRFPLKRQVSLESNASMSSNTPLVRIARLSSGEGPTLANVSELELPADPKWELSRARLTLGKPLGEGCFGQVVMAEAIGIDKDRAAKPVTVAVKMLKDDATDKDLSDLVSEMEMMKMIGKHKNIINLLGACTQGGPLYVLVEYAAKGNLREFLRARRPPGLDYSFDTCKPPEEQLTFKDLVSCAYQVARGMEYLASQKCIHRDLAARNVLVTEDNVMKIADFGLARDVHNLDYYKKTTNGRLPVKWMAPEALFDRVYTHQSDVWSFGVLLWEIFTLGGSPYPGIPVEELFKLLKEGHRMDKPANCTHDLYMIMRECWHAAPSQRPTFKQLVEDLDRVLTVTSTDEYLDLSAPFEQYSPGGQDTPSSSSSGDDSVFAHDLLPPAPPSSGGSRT

SH2 binding enrichment [14] | SH2 binding enrichment [15] | SH2 binding enrichment [16] | Sequence | phosphorylation enrichment [1] | phosphorylation enrichment [2] | phosphorylation enrichment [3] | phosphorylation enrichment [4] | phosphorylation enrichment [5] | phosphorylation enrichment [6] | phosphorylation enrichment [7] | phosphorylation enrichment [8] | phosphorylation enrichment [9] | phosphorylation enrichment [10] | phosphorylation enrichment [11] | phosphorylation enrichment [12] | phosphorylation enrichment [13]
1.08 | 0.869 | 0.691 | FSAGTYPRMEE [SYCN_Y108_L111M] | 0.547 | 0.575 | 0.361 | 0.365 | 1.12 | 0.65 | 0.501 | 0.467 | 0.453 | 0.407 | 0.322 | 0.417 | 0.863
0.769 | 1.16 | 1 | VFDMLYQVANL [USP24_Y1087_L1089V] | 0.923 | 0.863 | 2.92 | 2.78 | 0.943 | 1.06 | 2.06 | 5.28 | 2.75 | 4.11 | 4.24 | 11.7 | 1.79
0.675 | 1.23 | 0.811 | VPDTNYTSDEE [STK33_Y439_A437T] | 0.708 | 1.07 | 0.56 | 0.437 | 0.606 | 1.19 | 0.748 | 0.658 | 0.562 | 0.465 | 0.552 | 0.511 | 1.23

The remaining lines, values behind:

Sequence | SH2 binding enrichment [14] | SH2 binding enrichment [15] | SH2 binding enrichment [16] | phosphorylation enrichment [1] | phosphorylation enrichment [2] | phosphorylation enrichment [3] | phosphorylation enrichment [4] | phosphorylation enrichment [5] | phosphorylation enrichment [6] | phosphorylation enrichment [7] | phosphorylation enrichment [8] | phosphorylation enrichment [9] | phosphorylation enrichment [10] | phosphorylation enrichment [11] | phosphorylation enrichment [12] | phosphorylation enrichment [13]
VDSLRYIYPKL [EIF2B3_Y92_A87V] | 10.7 | 0.88 | 1.43 | 0.655 | 0.733 | 0.48 | 0.489 | 0.453 | 0.844 | 0.553 | 0.506 | 0.561 | 0.424 | 0.524 | 0.532 | 0.757
EMFNPCYGLFE [NEDD4L_Y679_Y679C] | 0.643 | 0.918 | 0.803 | 0.713 | 1.2 | 4.58 | 0.765 | 0.543 | 1.49 | 1.03 | 0.689 | 0.489 | 5.2 | 1.43 | 1.14 | 1.04
LEPHIYAVADV [MYO9A_Y216] | 3.29 | 0.979 | 0.789 | 0.616 | 0.741 | 1.74 | 1.28 | 0.469 | 1.02 | 14.1 | 1.2 | 0.822 | 2.11 | 1.6 | 1.64 | 0.926
GGTPLYMDRQG [AGXT_Y194] | 0.448 | 0.76 | 0.685 | 0.47 | 0.513 | 0.516 | 0.409 | 0.401 | 0.614 | 0.499 | 0.501 | 0.465 | 0.505 | 1.26 | 0.431 | 0.606
SLALFYRNVYH [RBL1_Y792_K794N] | 0.446 | 0.743 | 0.566 | 0.741 | 0.869 | 0.419 | 0.382 | 0.603 | 1.25 | 0.576 | 0.433 | 0.511 | 0.381 | 0.524 | 0.45 | 0.923
